Measured values published in patent US20080199514A1 (BURNHAM INSTITUTE, published 2008).
Where a chain is given by its changes, count along the chain named. Blank lines part the entries; values can stand above or below the binder they belong to.

Key:
[1] = molecular target: T1, GST tag alone (UniProt P08515 1-218 = GST); experiment: GST pull-down with glutathione-agarose from E. coli BL21 lysates, S-protein-HRP blot
T1 construct: Negative control of the pull-down; also called GST alone
Experimental: The s-tagged constructs were prepared using pET-30, (Novagen, San Diego, Calif. 92121), however, other vector systems can be used. […] The constructs were equally expressed using E. coli BL21. Either a GST-Tagged SH3 domain of Csk or a GST tag alone was co-expressed with the LYP fragment constructs. A glutathione-agarose bead was added to each of the BL21 lysates. Precipitated proteins were separated by gel-electrophoresis and transferred to a nitrocellulose filter. The filters were incubated with S-protein HRP and ECL reagent to allow for chemiluminescent detection of Csk bound LYP. […] None of the constructs precipitated when co-expressed with GST alone. In this example, bound material was detected using S-protein-horseradish peroxidase.

[2] = molecular target: T2, endogenous Csk from Jurkat T cells (UniProt P41240 2-450, limits assumed); experiment: S-tag pull-down from Jurkat T cell lysate, anti-Csk blot
T2 construct: mature; Native protein in the cell lysate
Experimental: Jurkat T cells, which endogenously express Csk, were lysed and the protein lysate was subjected to a pull down assay using S-tagged LYP either having R620 or having W620. A blot was performed and detection was carried out using an anti-Csk primary antibody in a two-stage detection system.

[3] = molecular target: T3, Lck phosphopeptide (ARLIEDNEpYTAAREG)
T3 chain: ARLIEDNEYTAAREG

T1 sequence (P08515 whole entry): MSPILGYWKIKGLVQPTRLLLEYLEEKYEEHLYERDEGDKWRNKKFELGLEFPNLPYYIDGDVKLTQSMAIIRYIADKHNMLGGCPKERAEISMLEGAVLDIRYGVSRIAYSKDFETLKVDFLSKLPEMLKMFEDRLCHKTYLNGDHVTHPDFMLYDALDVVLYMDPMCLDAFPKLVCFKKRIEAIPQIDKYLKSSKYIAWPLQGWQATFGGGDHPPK
T2 sequence (P41240 2-450 limits assumed): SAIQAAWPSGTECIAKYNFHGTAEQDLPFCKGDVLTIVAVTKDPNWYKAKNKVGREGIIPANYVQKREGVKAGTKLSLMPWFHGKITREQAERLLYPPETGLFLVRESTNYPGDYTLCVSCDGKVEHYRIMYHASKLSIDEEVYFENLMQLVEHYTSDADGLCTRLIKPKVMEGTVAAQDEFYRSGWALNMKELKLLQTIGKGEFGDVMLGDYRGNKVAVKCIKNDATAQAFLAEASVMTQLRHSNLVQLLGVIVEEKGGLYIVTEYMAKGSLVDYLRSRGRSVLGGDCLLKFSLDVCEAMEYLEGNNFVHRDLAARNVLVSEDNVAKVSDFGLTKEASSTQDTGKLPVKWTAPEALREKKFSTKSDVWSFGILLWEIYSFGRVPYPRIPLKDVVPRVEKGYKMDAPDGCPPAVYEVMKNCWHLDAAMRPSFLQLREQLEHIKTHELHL

binding result [1]: no binding
B1: S-tagged LYP polypeptide corresponding to amino acid residues 603-710 with arginine at position 620 (other, human, UniProt Q9Y2R2 603-710, looked up)
chain: LATAPRIDDEIPPPLPVRTPESFIVVEEAGEFSPNVPKSLSSAVKVKIGTSLEWGGTSEPKKFDDSVILRPSKSVKLRSPKSELHQDRSSPPPPLPERTLESFFLADE
notes: Expressed in E. coli BL21; also called Construct 1; not shown: S-tag and other vector-derived residues from pET-30 (Novagen)

binding result [2]: no binding | binding result [1]: no binding
B2: S-tagged LYP polypeptide corresponding to amino acid residues 603-710 with tryptophan at position 620 (other, human, UniProt Q9Y2R2 603-710, looked up)
chain: B1 chain with R18W
notes: Expressed in E. coli BL21; also called Construct 2; not shown: S-tag and other vector-derived residues from pET-30 (Novagen)

B3: full length Hemagglutinin (HA) tagged LYP having R620 (protein)
chain: MDQREILQKFLDEAQSKKITKEEFANEFLKLKRQSTKYKADKTYPTTVAEKPKNIKKNRYKDILPYDYSRVELSLITSDEDSSYINANFIKGVYGPKAYIATQGPLSTTLLDFWRMIWEYSVLIIVMACMEYEMGKKKCERYWAEPGEMQLEFGPFSVSCEAEKRKSDYIIRTLKVKFNSETRTIYQFHYKNWPDHDVPSSIDPILELIWDVRCYQEDDSVPICIHCSAGCGRTGVICAIDYTWMLLKDGIIPENFSVFSLIREMRTQRPSLVQTQEQYELVYNAVLELFKRQMDVIRDKHSGTESQAKHCIPEKNHTLQADSYSPNLPKSTTKAAKMMNQQRTKMEIKESSSFDFRTSEISAKEELVLHPAKSSTSFDFLELNYSFDKNADTTMKWQTKAFPIVGEPLQKHQSLDLGSLLFEGCSNSKPVNAAGRYFNSKVPITRTKSTPFELIQQRETKEVDSKENFSYLESQPHDSCFVEMQAQKVMHVSSAELNYSLPYDSKHQIRNASNVKHHDSSALGVYSYIPLVENPYFSSWPPSGTSSKMSLDLPEKQDGTVFPSSLLPTSSTSLFSYYNSHDSLSLNSPTNISSLLNQESAVLATAPRIDDEIPPPLPVRTPESFIVVEEAGEFSPNVPKSLSSAVKVKIGTSLEWGGTSEPKKFDDSVILRPSKSVKLRSPKSELHQDRSSPPPPLPERTLESFFLADEDCMQAQSIETYSTSYPDTMENSTSSKQTLKTPGKSFTRSKSLKILRNMKKSICNSCPPNKPAESVQSNNSSSFLNFGFANRFSKPKGPRNPPPTWNI
Dephosphorylation of an Lck phosphopeptide by immunoprecipitated HA-tagged LYP [3]: Immunoprecipitated LYP*R620 dephosphorylated 6.312±1.596 pmoles of substrate/min/106 transfected cells (n=5)
